Laboratory results: publication PMC7617732 (2024)

Assays:
Test in all cases: SPR
m6 = biological target: m6
m7 = biological target: m7
3FTx-L8 = biological target: 3FTx-L8
[1] = biological target: T1, 3FTx-L2 (recombinant long-chain three-finger α-neurotoxin variant)
T1 chain: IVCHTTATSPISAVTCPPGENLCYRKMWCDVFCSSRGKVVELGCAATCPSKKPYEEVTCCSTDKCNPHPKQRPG

[2] = biological target: T2, 3FTx-L15 (recombinant long-chain three-finger α-neurotoxin variant)
T2 chain: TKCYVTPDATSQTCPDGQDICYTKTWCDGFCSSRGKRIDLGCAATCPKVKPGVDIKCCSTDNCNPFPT

B1: 95Mat5 (human IgG) (antibody, V domains shown)
VH: QVQLVQSGAEVKKPGSSVKVSCKASGGTFSSYAISWVRQAPGQGLEWMGGYIPIFGTANYAQKFQGRVTITADESTSTAYMELSSLRSEDTAVYYCARIPLRWYESGPYESGVFDYWGQGTLVTVSS
VL: not shown
m6
  Kd: 0.11 nM
m7
  Kd: 0.24 nM
3FTx-L8
  Kd: < 0.01 nM
[1]
  Kd: 0.72 nM
[2]
  Kd: 0.61 nM
